Reference: patent publication US20190185531A1 (MIT, published 2019)

Experiments:
[1] = biological target: T1, human Bfl-1 (c-myc-tagged) (human, UniProt Q16548 1-151, limits assumed); experiment: fluorescence anisotropy competition (FIG. 1E)
T1 construct: c-myc-tagged in the fluorescence polarization and yeast-display assays; also called c-myc-Bfl-1; Myc-tagged Bfl-1; not shown: c-myc tag
T1 sequence (looked up): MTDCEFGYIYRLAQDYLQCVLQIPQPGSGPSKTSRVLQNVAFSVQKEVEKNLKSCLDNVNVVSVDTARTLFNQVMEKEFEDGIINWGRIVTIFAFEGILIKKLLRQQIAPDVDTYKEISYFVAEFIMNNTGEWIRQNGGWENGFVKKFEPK
Protocol: (§1) Fluorescence polarization assays were performed in order to measure the binding abilities of the peptide constructs. […] C-myc-tagged receptors were used for all Bcl-2 homologs. Plates were mixed at room temperature for 3 h. Experiments were done in triplicate. Data were fit, as described for competition fluorescence anisotropy experiments in Foight et al. (Foight, G. W., Ryan, J. A., Gullá, S. V, Letai, A. & Keating, A. E. Designed BH3 Peptides with High Affinity and Specificity for Targeting Mcl-1 in Cells. ACS Chem. Biol. 9, 1962-8 (2014)), to a complete competitive binding model (equation 17 in Roehrl et al., 2004)(Roehrl, M. H. A., Wang, J. Y. & Wagner, G. A General Framework for Development and Data Analysis of Competitive High-Throughput Screens for Small-Molecule Inhibitors of Protein-Protein Interactions by Fluorescence Polarization^{†}. Biochemistry 43, 16056-16066 (2004)) using a Python script.

[2] = biological target: T2, human Mcl-1 (c-myc-tagged) (human, UniProt Q07820 172-327); experiment: assay not named in the sentence (competition fluorescence anisotropy elsewhere)
T2 construct: c-myc-tagged in the fluorescence polarization assay; also called c-myc-Mcl-1; not shown: c-myc tag
T2 sequence (Q07820 172-327 limits assumed): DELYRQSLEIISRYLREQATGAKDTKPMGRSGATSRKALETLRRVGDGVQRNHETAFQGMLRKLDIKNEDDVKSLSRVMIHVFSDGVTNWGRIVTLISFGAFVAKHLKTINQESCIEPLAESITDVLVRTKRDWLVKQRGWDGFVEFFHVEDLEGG

[3] = biological target: T1, human Bfl-1 (c-myc-tagged); experiment: competition fluorescence anisotropy against fluoresceinated Bim BH3
Protocol: as §1

[4] = biological target: T1, human Bfl-1 (c-myc-tagged); experiment: X-ray crystal structure
Protocol: To analyze the structural interactions between the peptides and Bfl-1, crystals of various complexes were grown and diffraction data collected. […] Crystals were seeded with drops containing parent crystals grown in higher ammonium sulfate (2.2-2.4 M) using a cat whisker. The protein was concentrated to 4 mg/ml in 20 mM Tris, 150 mM NaCl, 1% glycerol, 1 mM DTT, pH 8.0 and mixed with peptide at a 1:1 molar ratio. The hanging drops contained 1.5 μl of complex mixed with 1.5 μl of reservoir solution. Crystals were cryo-protected by transferring into 2.0 M lithium sulfate with 10% glycerol prior to flash freezing. Diffraction data were collected at the Advanced Photon Source at the Argonne National Laboratory, NE-CAT beamline 24ID-C. […] The peptide was built into the difference density from the rigid body refinement and the structure was refined with iterative rounds of refinement and model building using PHENIX and COOT.

Ac-QWVREIAAGLRRAADDVNAQVER-NH2 [FS2]
fold increase in affinity against the chimera with smaller residues at G2, D3, A4 and E4 [1]: 28.6 fold | fold weaker than binding to Bfl-1 [2]: > 100 fold

Ac-QWAREIGAGLRRAADDVNAQVER-NH2 (also called PUMA/FS2 chimeric peptides) [PUMA/FS2 chimeric peptide: PUMA with smaller residues at positions G2, D3, A4 and E4]
binding result [1]: binds

Ac-QWVREIAAGLRLAADNVNAQLER-NH2 [FS1]
Ki [3]: 15 nM

Ac-QWAREIGAQLRRMADDLNAQYER-NH2 (peptide, UniProt Q9BXH1 132-154, looked up, domain: BH3) [Puma BH3 peptide (23 residues)]
binding result [4]: binds

Ac-QWVREIAAQLRRMADDLNAQYER-NH2 (also called PUMA/FS2 chimeric peptides) [PUMA/FS2 chimeric peptide: PUMA with larger residues at positions A2 and E2]
fold increase in affinity against PUMA [1]: 2.3 fold
